{"source": "patent US20240417475A1", "about": "(AFFIMED, published 2024)", "key": {"[1]": {"target": "T1, human CD16A (158F) expressed on CHO cells (cAg_34) (human, UniProt P08637 17-254)", "T1 construct": "also called huCD16A-transfected CHO cells", "T1 sequence (P08637 17-254 limits assumed)": "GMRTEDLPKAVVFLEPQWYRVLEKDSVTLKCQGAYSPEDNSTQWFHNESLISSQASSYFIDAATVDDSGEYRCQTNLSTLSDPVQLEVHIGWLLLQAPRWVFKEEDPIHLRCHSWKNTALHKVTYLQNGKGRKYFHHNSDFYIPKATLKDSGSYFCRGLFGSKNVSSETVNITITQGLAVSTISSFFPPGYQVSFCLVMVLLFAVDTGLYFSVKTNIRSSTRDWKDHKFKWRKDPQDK", "experiment": "flow cytometry on huCD16A-transfected CHO cells (cAg_34), one-site fit of MFI, mean of 3", "experimental": "(§1) To analyze binding of different antibody constructs to CHO cells transfected with human CD16A (cAg_34), relative to CD16 expression by flow cytometry, 1-2×10⁵ were resuspended in 100 μL FACS buffer (PBS (Invitrogen, cat.: 14190-169) containing 2% heat-inactivated FCS (Invitrogen, cat.: 10270-106), and 0.1% sodium azide (Roth, Karlsruhe, Germany, cat.: A1430.0100)) in round-bottom 96-well microtiter plates. After washing in FACS buffer, cells were incubated in 50 μL FACS buffer without antibodies or with titrated antibodies starting at a concentration of 100 μg/mL followed by ten 5-fold serial dilutions for 30 min on ice in the dark. […] After washing, binding was measured by flow cytometry and mean fluorescence intensities (MFI) of cell samples were calculated and corrected for background staining using control cells stained with secondary antibodies only.\n(§2) Equilibrium dissociation constants (KD) of antibody binding were calculated by plotting MFI values and fitting a non-linear regression model for one-site binding to hyperbolic dose-response curves using GraphPad Prism."}, "[2]": {"target": "T1, human CD16A (158F) expressed on CHO …", "experiment": "flow cytometry on huCD16A-transfected CHO cells (cAg_34), one-site fit of MFI, experiment 1", "experimental": "as §1, §2"}, "[3]": {"target": "T1, human CD16A (158F) expressed on CHO …", "experiment": "flow cytometry on huCD16A-transfected CHO cells (cAg_34), one-site fit of MFI, experiment 2", "experimental": "as §1, §2"}, "[4]": {"target": "T1, human CD16A (158F) expressed on CHO …", "experiment": "flow cytometry on huCD16A-transfected CHO cells (cAg_34), one-site fit of MFI, experiment 3", "experimental": "as §1, §2"}, "[5]": {"target": "T1, human CD16A (158F) expressed on CHO …", "experiment": "flow cytometry on huCD16A-transfected CHO cells, on ice, APC goat anti-human IgG detection", "experimental": "as §1"}, "[6]": {"target": "T2, human FOLR1 endogenously expressed on tumor cell lines (human, UniProt P15328 25-234)", "T2 sequence (P15328 25-234)": "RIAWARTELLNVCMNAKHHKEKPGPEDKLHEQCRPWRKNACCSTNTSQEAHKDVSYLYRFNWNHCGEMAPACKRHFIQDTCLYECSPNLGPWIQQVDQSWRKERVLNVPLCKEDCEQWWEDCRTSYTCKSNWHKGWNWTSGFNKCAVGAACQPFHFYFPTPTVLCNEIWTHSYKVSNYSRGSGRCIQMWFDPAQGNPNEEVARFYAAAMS", "experiment": "cell-based or functional assay"}, "[7]": {"target": "T2, human FOLR1 endogenously expressed on …", "experiment": "flow cytometry on HCC-827 cells, 37 C, one-site fit of MFI, mean", "experimental": "(§3) Cells were collected and centrifuged at 400×g, 5 min, 4° C. Cell pellets were resuspended in FACS buffer (PBS (Invitrogen, cat.: 392-0434) containing 2% h.i. FCS (Invitrogen, cat.: 10500-064), and 0.1% sodium azide (Sigma, cat.: S8032)) at 1-5×10⁶ cells/mL. 100 μL/well of the cell suspension were transferred into U-shaped, 96-well micro plates (0.1-0.5×10⁶ cells per well), cells were pelleted at 400×g, 5 min, 4° C., and resuspended in 100 μL/well of serial dilutions of the indicated antibodies in FACS buffer. After 40-50 min incubation at 37° C., cells were washed 3-times with ice-cold FACS buffer. […] After the final incubation step, cells were washed 2-times with ice-cold FACS buffer, and the cell pellet was resuspended in 100 μL FACS buffer. Fluorescence intensities of >1×10⁴ viable cells were analyzed by flow cytometry and the median fluorescence intensity (MFI) was determined for each sample.\n(§4) Equilibrium dissociation constants (KD) of antibody binding, mean and standard deviation (SD) were calculated by plotting MFI values and fitting a non-linear regression model for one-site binding to hyperbolic dose-response curves using GraphPad Prism for Windows (v9; GraphPad Software; La Jolla California USA).\n(§5) Specific antibody binding capacity (SABC) as a marker for FOLR1 expression level on cells was determined on all tumor cell lines using QIFIKIT."}, "[8]": {"target": "T2, human FOLR1 endogenously expressed on …", "experiment": "flow cytometry on IGROV-1 cells, 37 C, one-site fit of MFI, mean", "experimental": "as §3, §4, §5"}, "[9]": {"target": "T2, human FOLR1 endogenously expressed on …", "experiment": "flow cytometry on OVCAR-3 cells, 37 C, one-site fit of MFI, mean", "experimental": "as §3, §4, §5"}, "[10]": {"target": "T2, human FOLR1 endogenously expressed on …", "experiment": "flow cytometry on NCI-H2110 cells, 37 C, one-site fit of MFI, mean", "experimental": "as §3, §4, §5"}, "[11]": {"target": "T3, human CD16A-mFc (158V) (sAg_149) (human, UniProt P08637 17-208)", "T3 construct": "also called CD16A 158V (sAg_149); recombinant human CD16A 158V", "T3 sequence (P08637 17-208 F176V limits assumed)": "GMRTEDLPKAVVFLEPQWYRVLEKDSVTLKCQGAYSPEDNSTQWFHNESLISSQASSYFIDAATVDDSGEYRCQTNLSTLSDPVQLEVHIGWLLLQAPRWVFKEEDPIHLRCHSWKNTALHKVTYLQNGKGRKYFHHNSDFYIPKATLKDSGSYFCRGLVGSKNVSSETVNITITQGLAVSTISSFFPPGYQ", "experiment": "ELISA, plate coated with human CD16A-mFc (158V) (sAg_149), one-site fit, mean of 3", "experimental": "(§6) After incubation with the secondary antibodies, the plate was washed five times with PBST and one time with PBS. Chromogenic substrate (1:1 mixture of TMB:TMBB, SeraCare cat: 5120-0048 and 5120-0037) was added and the reaction was stopped by addition of an equal volume of 0.5 M H₂SO₄ after sufficient color development. Absorbance at 450 nm was measured in an ELISA plate reader (Sunrise Absorbance Reader 901000833, Schoeller Instruments). The absorbance values were corrected by subtracting the background of the respective secondary antibody and fitted with a one site binding function (hyperbola) using GraphPad Prism (version 9.3.1. GraphPad Software, La Jolla California USA). KD is the concentration of ligand required to reach half-maximal binding."}, "[12]": {"target": "T4, human FOLR1-mFc_Avi-tag (sAg_303) (human, UniProt P15328 25-234, limits assumed)", "T4 construct": "also called human FOLR1 (sAg_303); recombinant human FOLR1", "T4 sequence (P15328 25-234 limits assumed)": "as the sequence (P15328 25-234) above", "experiment": "ELISA, plate coated with human FOLR1-mFc_Avi-tag (sAg_303), one-site fit, mean of 3", "experimental": "as §6, with “96 well ELISA plates (F96 Maxisorp Immuno Plate, Nunc, cat: 442404) were coated overnight at 4° C. with 50 μL/well of 10 μg/mL human FOLR1-mFc_Avi-tag in DPBS. After overnight incubation plates were washed three times with PBST and blocked with Candor Blocking solution for 2 h at RT under mild agitation. […] After” for “After”"}, "[13]": {"target": "T4, human FOLR1-mFc_Avi-tag (sAg_303)", "experiment": "ELISA, plate coated with human FOLR1-mFc_Avi-tag, anti-human Fab-HRP detection, A450", "experimental": "as §6, with “96 well ELISA plates (F96 Maxisorp Immuno Plate, Nunc, cat: 442404) were coated overnight at 4° C. with 50 μL/well of 10 μg/mL human FOLR1-mFc_Avi-tag in DPBS. After overnight incubation plates were washed three times with PBST and blocked with Candor Blocking solution for 2 h at RT under mild agitation. […] After” for “After”"}, "[14]": {"target": "T2, human FOLR1 endogenously expressed on …", "experiment": "flow cytometry on IGROV-1 cells (FOLR1 high) at 37 °C, FITC anti-human IgG detection", "experimental": "as §3"}, "[15]": {"target": "T2, human FOLR1 endogenously expressed on …", "experiment": "flow cytometry on OVCAR-3 cells (FOLR1 medium) at 37 °C, FITC anti-human IgG detection", "experimental": "as §3"}}, "data": [{"binder": "scFv-IgAb_148 (CD123-1×CD16a2) (bispecific antibody, also called CD123×CD16A scFv-IgAb_148; CD123/CD16A scFv-IgAb_148) chain 1: QVQLQQSGAEVKKPGASVKVSCKASGYTFTDYYMKWVKQSHGKSLEWMGDIIPSNGATFYNQKFKGKATLTVDRSTSTAYMELSSLRSEDTAVYYCARSHLLRASWFAYWGQGTLVTVSSASTKGPSVFPLAPSSKSTSGGTAALGCLVKDYFPEPVTVSWNSGALTSGVHTFPAVLQSSGLYSLSSVVTVPSSSLGTQTYICNVNHKPSNTKVDKKVEPKSCDKTHTCPPCPAPEFEGGPSVFLFPPKPKDTLMISRTPEVTCVVVAVSHEDPEVKFNWYVDGVEVHNAKTKPREEQYNSTYRVVSVLTVLHQDWLNGKEYKCKVSNKALPAPIEKTISKAKGQPREPQVYTLPPSREEMTKNQVSLTCLVKGFYPSDIAVEWESNGQPENNYKTTPPVLDSDGSFFLYSKLTVDKSRWQQGNVFSCSVMHEALHNHYTQKSLSLSPGGGGGSGGGGSGGGGSGGGGSGGGGSGGGGSSYVLTQPSSVSVAPGQTATISCGGHNIGSKNVHWYQQRPGQSPVLVIYQDNKRPSGIPERFSGSNSGNTATLTISGTQAMDEADYYCQVWDNYSVLFGGGTKLTVLGGSGGSGGSGGSGGSGGSGGSQVQLVQSGAEVKKPGESLKVSCKASGYTFTSYYMHWVRQAPGQGLEWMGAIEPMYGSTSYAQKFQGRVTMTRDTSTSTVYMELSSLRSEDTAVYYCARGSAYYYDFADYWGQGTLVTVSS chain 2: not shown", "values": [{"measurement": "Kd", "setting": "[1]", "result": 37.6, "unit": "nM"}, {"measurement": "Kd", "setting": "[2]", "result": 56.2, "unit": "nM"}, {"measurement": "Kd", "setting": "[3]", "result": 18.7, "unit": "nM"}, {"measurement": "Kd", "setting": "[4]", "result": 37.9, "unit": "nM"}, {"measurement": "EC50 (read off the curve)", "setting": "[5]", "result": "~20", "unit": "nM"}]}, {"binder": "anti-FOLR1 IgG1 IgAb_335 (antibody, IgG1 with farletuzumab-derived Fv domains and wild-type Fc; also called IgAb_355; anti-FOLR1 IgG1 antibody comprising wild-type Fc) chain 1: not shown chain 2: DIQLTQSPSSLSASVGDRVTITCSVSSSISSNNLHWYQQKPGKAPKPWIYGTSNLASGVPSRFSGSGSGTDYTFTISSLQPEDIATYYCQQWSSYPYMYTFGQGTKVEIKRTVAAPSVFIFPPSDEQLKSGTASVVCLLNNFYPREAKVQWKVDNALQSGNSQESVTEQDSKDSTYSLSSTLTLSKADYEKHKVYACEVTHQGLSSPVTKSFNRGEC", "values": [{"measurement": "EC50 [nM] of ADCP, HCC-78 cells", "setting": "[6]", "result": 0.81, "unit": "nM"}, {"measurement": "EC50 [nM] of ADCP, HeLa cells", "setting": "[6]", "result": 0.78, "unit": "nM"}, {"measurement": "Phagocytosis [%], 4 h ADCP, DK-MG cells", "setting": "[6]", "result": 0, "unit": "%"}, {"measurement": "Phagocytosis [%], 4 h ADCP, HCC-78 cells", "setting": "[6]", "result": 10.7, "unit": "%"}, {"measurement": "Phagocytosis [%], 4 h ADCP, HeLa cells", "setting": "[6]", "result": 16.4, "unit": "%"}, {"measurement": "Kd", "setting": "[7]", "result": 3.2, "unit": "nM"}, {"measurement": "Kd", "setting": "[8]", "result": 4.4, "unit": "nM"}, {"measurement": "Kd", "setting": "[9]", "result": 1.8, "unit": "nM"}, {"measurement": "Kd", "setting": "[10]", "result": 2.3, "unit": "nM"}, {"measurement": "Kd", "setting": "[11]", "result": 3.53, "unit": "nM"}, {"measurement": "Kd", "setting": "[12]", "result": 0.05, "unit": "nM"}, {"measurement": "EC50 (read off the curve)", "setting": "[13]", "result": "~0.05", "unit": "nM"}, {"measurement": "EC50 (read off the curve)", "setting": "[14]", "result": "~4", "unit": "nM"}, {"measurement": "EC50 (read off the curve)", "setting": "[15]", "result": "~2", "unit": "nM"}]}]}
